Our source for the % activity, 100 µM values is patent US20140072613A1, “Compositions and Methods for Treating Cutaneous Scarring” (priority 2012, published 2014).

Among the targets are Abl(Q252H)(h) (human) (UniProt P00519); DRAK1(h) (human) (UniProt Q9UEE5); Fer(h) (human) (UniProt P16591); Hck(h) activated (human) (UniProt P08631); JAK2(h) (human) (UniProt O60674); MKK6(h) (human) (UniProt P52564); Mnk2(h) (human) (UniProt Q9HBH9); PKCε(h) (human) (UniProt Q02156); PKCι(h) (human) (UniProt P41743); SAPK2b(h) (human) (UniProt Q15759); Syk(h) (human) (UniProt P43405); TLK2(h) (human) (UniProt Q86UE8); cKit(D816H)(h) (human) (UniProt P10721); cKit(V654A)(h) (human) (UniProt P10721).

Holding throughout (test): cell-based or functional assay
A further experiment deals with T1, Axl(h) (human) (UniProt P30530).
T1 sequence (looked up): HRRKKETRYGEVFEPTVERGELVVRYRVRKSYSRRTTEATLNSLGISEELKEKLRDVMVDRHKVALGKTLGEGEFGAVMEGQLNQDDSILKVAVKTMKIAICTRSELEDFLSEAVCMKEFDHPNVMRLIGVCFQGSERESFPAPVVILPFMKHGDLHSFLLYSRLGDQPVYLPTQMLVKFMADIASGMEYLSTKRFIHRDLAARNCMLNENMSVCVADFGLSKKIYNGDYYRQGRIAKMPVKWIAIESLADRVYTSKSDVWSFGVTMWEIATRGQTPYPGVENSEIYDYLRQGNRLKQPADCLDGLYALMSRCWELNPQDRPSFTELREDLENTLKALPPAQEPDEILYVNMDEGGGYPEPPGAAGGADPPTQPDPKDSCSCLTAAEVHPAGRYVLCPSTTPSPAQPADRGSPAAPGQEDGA

Another experiment concerns the target T2, Bmx(h) (human) (UniProt P51813).
T2 sequence (looked up): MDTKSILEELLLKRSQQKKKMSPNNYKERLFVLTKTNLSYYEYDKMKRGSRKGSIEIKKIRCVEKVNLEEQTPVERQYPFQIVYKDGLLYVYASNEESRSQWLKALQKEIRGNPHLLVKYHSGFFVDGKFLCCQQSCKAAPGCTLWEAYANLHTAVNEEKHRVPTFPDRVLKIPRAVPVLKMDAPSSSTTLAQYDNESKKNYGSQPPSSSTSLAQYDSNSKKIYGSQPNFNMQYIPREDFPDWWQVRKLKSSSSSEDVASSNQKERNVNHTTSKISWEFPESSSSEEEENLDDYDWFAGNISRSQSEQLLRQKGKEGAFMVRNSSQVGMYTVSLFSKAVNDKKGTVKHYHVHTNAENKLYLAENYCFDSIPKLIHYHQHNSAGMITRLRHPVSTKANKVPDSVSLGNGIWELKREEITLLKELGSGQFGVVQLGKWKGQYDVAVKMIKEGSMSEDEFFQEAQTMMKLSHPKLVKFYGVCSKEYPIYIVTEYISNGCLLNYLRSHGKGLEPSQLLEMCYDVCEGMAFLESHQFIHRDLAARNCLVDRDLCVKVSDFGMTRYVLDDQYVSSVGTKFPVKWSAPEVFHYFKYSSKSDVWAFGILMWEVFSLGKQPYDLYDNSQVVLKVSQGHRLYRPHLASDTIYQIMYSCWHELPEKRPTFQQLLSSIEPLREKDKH

Experiment [1] addresses CDK7/cyclinH/MAT1(h) (human) (UniProt P50613).
The target of the next experiment is T3, Haspin(h) (human) (UniProt Q8TF76).
T3 sequence (looked up): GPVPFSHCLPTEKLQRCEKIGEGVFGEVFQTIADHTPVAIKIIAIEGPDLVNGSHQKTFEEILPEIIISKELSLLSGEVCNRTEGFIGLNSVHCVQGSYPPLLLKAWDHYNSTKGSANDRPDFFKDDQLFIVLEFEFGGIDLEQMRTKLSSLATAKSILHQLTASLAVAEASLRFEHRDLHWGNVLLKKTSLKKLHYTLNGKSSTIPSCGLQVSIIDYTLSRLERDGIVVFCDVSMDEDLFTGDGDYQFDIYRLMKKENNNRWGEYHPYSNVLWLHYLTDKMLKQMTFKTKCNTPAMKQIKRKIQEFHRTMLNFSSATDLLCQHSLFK

In the next experiment the target is T4, MST1(h) (human) (UniProt Q13043).
T4 sequence (looked up): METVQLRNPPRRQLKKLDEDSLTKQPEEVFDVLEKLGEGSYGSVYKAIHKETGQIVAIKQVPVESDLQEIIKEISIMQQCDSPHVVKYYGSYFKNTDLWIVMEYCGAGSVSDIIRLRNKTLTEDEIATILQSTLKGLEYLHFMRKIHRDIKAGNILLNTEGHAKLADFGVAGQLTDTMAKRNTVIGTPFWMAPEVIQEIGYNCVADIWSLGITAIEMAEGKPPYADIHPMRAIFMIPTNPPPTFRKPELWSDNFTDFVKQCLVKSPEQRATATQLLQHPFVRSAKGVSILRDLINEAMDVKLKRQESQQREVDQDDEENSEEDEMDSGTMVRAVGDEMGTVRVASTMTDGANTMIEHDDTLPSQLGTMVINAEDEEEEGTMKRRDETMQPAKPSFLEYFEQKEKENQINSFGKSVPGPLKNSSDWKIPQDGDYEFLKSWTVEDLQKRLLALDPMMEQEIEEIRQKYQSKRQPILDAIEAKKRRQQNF

Chain of SAPK2b(h) (human) (Q15759 whole entry): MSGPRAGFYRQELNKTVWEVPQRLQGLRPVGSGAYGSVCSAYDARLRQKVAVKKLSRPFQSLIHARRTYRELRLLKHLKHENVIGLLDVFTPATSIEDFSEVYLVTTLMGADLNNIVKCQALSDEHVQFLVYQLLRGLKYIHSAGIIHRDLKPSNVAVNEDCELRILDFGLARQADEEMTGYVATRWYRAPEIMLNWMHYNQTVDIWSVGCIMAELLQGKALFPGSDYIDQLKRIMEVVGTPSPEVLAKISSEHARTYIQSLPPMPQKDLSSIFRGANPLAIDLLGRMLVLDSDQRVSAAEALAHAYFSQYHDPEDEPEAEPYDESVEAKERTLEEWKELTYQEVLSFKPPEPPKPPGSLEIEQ
Chain of CDK7/cyclinH/MAT1(h) (human) (P50613 whole entry, chain 1 of 3): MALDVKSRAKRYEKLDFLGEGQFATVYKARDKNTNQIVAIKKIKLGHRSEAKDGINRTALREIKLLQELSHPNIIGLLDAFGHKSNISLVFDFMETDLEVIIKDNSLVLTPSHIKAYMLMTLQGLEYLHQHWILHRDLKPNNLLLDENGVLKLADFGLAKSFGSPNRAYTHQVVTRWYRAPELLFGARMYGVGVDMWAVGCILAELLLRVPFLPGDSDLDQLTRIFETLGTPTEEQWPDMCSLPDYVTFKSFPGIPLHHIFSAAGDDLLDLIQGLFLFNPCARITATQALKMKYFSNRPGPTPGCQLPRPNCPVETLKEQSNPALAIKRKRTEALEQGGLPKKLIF
Chain of CDK7/cyclinH/MAT1(h) (human) (P51946 whole entry, chain 2 of 3, further chain): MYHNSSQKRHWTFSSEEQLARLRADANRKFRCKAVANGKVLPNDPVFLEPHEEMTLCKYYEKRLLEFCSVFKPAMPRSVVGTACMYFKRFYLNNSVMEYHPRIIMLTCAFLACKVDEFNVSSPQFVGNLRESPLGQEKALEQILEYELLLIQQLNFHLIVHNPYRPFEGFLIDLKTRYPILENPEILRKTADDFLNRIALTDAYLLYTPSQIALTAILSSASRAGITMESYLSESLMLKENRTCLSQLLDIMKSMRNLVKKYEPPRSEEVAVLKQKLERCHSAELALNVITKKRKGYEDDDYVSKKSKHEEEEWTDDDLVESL
Chain of CDK7/cyclinH/MAT1(h) (human) (P51948 whole entry, chain 3 of 3, further chain): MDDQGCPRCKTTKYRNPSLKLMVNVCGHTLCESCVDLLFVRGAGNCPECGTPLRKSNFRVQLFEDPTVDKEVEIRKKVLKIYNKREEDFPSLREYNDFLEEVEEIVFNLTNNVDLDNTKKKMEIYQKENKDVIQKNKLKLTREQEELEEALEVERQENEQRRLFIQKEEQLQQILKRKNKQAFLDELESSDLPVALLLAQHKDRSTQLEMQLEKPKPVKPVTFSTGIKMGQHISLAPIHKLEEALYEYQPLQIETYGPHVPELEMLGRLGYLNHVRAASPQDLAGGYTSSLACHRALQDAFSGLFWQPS
Chain of PKCι(h) (human) (P41743 whole entry): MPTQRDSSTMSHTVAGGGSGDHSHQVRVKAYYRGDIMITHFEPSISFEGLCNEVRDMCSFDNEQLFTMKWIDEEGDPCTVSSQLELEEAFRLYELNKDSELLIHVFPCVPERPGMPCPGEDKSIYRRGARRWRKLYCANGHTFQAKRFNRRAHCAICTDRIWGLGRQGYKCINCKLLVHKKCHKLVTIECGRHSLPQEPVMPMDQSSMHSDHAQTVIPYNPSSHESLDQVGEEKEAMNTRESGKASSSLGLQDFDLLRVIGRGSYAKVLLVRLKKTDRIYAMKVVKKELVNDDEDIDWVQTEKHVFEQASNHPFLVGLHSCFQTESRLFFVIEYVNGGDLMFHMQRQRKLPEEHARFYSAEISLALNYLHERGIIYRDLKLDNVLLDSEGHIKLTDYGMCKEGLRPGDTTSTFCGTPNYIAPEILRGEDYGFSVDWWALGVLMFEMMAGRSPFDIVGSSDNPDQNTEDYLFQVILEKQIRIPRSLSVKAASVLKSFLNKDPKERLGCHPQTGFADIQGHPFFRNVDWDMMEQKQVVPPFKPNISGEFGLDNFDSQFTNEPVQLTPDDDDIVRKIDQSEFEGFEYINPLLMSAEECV
Chain of TLK2(h) (human) (Q86UE8 whole entry): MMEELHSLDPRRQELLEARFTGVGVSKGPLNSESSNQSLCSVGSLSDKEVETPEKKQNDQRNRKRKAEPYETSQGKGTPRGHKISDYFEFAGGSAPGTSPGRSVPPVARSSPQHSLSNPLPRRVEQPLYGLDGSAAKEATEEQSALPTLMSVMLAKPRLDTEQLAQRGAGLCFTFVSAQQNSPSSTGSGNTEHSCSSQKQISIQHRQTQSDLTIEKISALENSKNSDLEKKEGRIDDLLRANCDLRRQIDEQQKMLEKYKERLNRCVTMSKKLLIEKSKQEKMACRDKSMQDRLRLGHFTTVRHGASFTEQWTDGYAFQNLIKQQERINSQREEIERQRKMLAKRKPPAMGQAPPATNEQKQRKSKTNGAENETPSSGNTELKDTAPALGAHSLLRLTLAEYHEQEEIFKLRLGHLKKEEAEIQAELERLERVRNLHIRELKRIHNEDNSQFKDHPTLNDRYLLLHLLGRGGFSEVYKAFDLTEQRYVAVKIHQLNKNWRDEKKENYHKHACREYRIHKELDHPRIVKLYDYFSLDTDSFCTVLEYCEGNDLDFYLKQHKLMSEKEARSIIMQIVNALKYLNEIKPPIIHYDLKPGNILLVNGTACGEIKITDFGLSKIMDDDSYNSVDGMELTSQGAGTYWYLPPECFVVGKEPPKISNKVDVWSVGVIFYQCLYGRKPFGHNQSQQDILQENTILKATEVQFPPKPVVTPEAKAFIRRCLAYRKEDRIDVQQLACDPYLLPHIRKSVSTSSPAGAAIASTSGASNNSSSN
Chain of Hck(h) activated (human) (P08631 251-518 limits assumed): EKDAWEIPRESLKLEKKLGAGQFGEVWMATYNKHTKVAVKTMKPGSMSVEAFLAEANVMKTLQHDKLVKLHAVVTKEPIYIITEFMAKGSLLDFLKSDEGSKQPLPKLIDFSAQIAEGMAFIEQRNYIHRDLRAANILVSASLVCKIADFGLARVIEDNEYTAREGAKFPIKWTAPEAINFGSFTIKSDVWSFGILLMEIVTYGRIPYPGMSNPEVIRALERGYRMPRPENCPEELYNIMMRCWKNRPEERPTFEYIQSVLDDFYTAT
Chain of PKCε(h) (human) (Q02156 whole entry): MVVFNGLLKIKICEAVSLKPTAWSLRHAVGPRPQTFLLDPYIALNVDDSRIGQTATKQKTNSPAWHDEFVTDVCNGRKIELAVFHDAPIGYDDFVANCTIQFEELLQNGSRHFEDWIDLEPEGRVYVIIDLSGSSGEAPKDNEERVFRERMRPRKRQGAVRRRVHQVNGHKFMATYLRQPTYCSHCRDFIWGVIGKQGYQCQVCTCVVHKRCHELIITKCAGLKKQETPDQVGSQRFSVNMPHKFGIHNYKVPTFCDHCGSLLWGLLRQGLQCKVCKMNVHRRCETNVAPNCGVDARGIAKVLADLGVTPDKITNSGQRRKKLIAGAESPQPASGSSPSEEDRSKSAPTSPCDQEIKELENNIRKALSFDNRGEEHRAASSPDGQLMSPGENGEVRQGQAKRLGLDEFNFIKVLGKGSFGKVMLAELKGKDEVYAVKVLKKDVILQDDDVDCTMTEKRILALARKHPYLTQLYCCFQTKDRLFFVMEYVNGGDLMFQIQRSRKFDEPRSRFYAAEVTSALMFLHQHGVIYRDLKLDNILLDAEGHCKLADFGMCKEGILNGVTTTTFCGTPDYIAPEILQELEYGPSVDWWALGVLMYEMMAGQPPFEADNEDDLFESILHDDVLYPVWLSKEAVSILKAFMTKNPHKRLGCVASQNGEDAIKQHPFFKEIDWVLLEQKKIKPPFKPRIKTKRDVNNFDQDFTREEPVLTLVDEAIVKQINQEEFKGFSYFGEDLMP
Chain of DRAK1(h) (human) (Q9UEE5 whole entry): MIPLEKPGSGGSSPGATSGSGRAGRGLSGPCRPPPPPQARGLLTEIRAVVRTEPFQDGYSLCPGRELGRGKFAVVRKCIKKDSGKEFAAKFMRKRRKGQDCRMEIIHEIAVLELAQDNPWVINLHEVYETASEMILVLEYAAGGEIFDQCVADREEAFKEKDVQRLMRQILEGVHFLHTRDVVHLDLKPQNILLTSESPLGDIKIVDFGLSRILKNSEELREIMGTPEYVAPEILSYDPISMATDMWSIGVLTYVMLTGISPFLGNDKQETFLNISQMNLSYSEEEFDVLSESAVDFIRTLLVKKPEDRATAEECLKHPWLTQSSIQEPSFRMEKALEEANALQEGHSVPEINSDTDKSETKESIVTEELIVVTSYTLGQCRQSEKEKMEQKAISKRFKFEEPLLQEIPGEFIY
Chain of cKit(V654A)(h) (human) (P10721 544-976 V654A): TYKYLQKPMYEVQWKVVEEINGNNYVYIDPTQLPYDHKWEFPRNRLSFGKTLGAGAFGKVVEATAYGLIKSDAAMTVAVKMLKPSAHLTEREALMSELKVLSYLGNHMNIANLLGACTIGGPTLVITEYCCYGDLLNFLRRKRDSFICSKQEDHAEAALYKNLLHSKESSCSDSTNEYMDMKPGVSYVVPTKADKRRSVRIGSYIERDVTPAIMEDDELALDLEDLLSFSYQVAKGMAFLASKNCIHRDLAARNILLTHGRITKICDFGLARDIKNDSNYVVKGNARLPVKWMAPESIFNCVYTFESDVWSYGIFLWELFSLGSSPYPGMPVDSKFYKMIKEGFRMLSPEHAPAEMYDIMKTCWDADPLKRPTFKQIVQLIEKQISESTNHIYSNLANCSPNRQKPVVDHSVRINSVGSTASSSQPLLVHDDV
Chain of JAK2(h) (human) (O60674 808-1132 limits assumed): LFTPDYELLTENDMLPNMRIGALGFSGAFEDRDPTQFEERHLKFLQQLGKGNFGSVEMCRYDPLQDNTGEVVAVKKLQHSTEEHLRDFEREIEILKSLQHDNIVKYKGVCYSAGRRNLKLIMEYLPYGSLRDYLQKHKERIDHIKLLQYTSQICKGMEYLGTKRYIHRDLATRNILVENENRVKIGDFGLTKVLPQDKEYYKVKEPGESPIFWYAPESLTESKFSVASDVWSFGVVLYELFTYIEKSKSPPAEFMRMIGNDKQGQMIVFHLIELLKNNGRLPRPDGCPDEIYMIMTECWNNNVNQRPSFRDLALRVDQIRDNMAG
Chain of cKit(D816H)(h) (human) (P10721 544-976 D816H): as the sequence (P10721 544-976 V654A) above, with A111V, D273H counted along it

MMI-0500 (peptide): the % activity, 100 µM with Abl(Q252H)(h) (human) was 40%; with Axl(h) (human), 12%; with Bmx(h) (human), 45%; in experiment [1], 15%; with DRAK1(h) (human), 8%; with Fer(h) (human), 196%. The % activity, 100 µM came out at 25% with Haspin(h) (human); 67% with Hck(h) activated (human); 49% with JAK2(h) (human); 18% with MKK6(h) (human); 3% with MST1(h) (human); 6% with Mnk2(h) (human). Besides, the % activity, 100 µM is 23% in the experiment with PKCε(h) (human); 7% in the experiment with PKCι(h) (human); 42% in the experiment with SAPK2b(h) (human); 5% in the experiment with Syk(h) (human); 133% with TLK2(h) (human); 194% with cKit(D816H)(h) (human). Further, the % activity, 100 µM with cKit(V654A)(h) (human) is 223%.
